Reference: patent US8252521B2, “Method of screening substance useful in treating disease with the use of GPR40 and phospholipase” (Eisai R&D Management Co., Ltd., priority 2005, dated 2012)

Legend:
Assay type in all cases: cell-based
Conditions in all cases: forskolin 0.3 μM, 24 hours with sample
human GPR40 = molecular target: T1, human GPR40 (Homo sapiens, UniProt O14842); assay: PLAP reporter transcription activity in GPR40-SE302 cells
T1 construct: expressed in transfected cells; host or cells: SE302 cells (HEK293 clone carrying a CRE4-VIP promoter PLAP reporter), infected with retrovirus made from pBabeCL(GPR40)IH and selected with hygromycin
Experimental: (§1) The GPR40-SE302 cells and GPR43-SE302 cells constructed in Examples 6 and 7 described above were suspended in a culture medium for measurement of transcription activity (DMEM containing FBS, which was heat-treated at 65° C. for 30 min, at a final concentration of 10%) and seeded onto a 96 well plate (Becton Dickinson, Co.) at 1×10^4 cells/well. In addition, as control cells, SE302 cells expressing green fluorescent protein (GFP, Invitrogen Corporation) (referred to as “GFP-SE302 cells” hereinafter) were used. Specifically, GFP-302 cells were prepared by obtaining a virus for expressing GFP using the method shown in Example 3 and 4, and transfecting SE302 cells with the virus using the method shown in Example 6. Cells were cultured for 24 hours after seeding, and forskolin prepared at a final concentration of 0.3 μM and a sample were added. Cells were cultured for another 24 hours, and 5 μL of the cell supernatant was recovered and transferred to a polypropylene 384-well white plate (Nalge Nunc International, Co.). Then, 20 μL of the assay buffer (280 mmol/L Na2CO3—NaHCO3, 8 mmol/L MgSO4, pH 10) and 25 μL of Lumiphos530 (Lumigen, Co.) were added. Following a 2-hour reaction at room temperature, chemiluminescence in each well was measured using a Fusion plate reader (Perkin Elmer, Co.) and was defined as the transcription activity. Based on these measured levels, stimulation/inhibition of transcription activity was calculated using the equation (I) shown below and described as [% of control]. Activities of the group with a sample added were calculated using the level of a control placed on each plate. [% of control]=(X−C)/(F−C)×100 (I) wherein,
(§2) X: PLAP transcription activity in the group added with a sample,
(§3) F: Mean level of transcription activity in 2 wells of a positive control (no sample added, stimulated with forskolin), and
(§4) C: Mean level of transcription activity in 2 wells of a negative control (no sample added, not stimulated with forskolin).

human GPR43 = molecular target: T2, human GPR43 (Homo sapiens, UniProt O15552); assay: PLAP reporter transcription activity in GPR43-SE302 cells
T2 construct: expressed in transfected cells; host or cells: SE302 cells (HEK293 clone carrying a CRE4-VIP promoter PLAP reporter), infected with retrovirus made from pBabeCL(GPR43)IH and selected with hygromycin
T2 sequence (O15552 1-330): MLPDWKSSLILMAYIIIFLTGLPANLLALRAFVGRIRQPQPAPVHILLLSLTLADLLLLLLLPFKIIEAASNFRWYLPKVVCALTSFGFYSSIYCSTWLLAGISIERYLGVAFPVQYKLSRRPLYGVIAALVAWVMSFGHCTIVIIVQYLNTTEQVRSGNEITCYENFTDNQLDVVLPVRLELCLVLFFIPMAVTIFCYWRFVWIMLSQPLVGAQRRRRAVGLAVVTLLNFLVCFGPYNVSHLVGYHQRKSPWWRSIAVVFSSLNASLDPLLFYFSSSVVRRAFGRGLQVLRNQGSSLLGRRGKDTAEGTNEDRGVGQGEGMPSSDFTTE
Experimental: as §1, §2, §3, §4

GFP-SE302 cells = assay: PLAP reporter transcription activity in GFP-SE302 control cells
Experimental: as §1, §2, §3, §4

T1 sequence (O14842 whole entry): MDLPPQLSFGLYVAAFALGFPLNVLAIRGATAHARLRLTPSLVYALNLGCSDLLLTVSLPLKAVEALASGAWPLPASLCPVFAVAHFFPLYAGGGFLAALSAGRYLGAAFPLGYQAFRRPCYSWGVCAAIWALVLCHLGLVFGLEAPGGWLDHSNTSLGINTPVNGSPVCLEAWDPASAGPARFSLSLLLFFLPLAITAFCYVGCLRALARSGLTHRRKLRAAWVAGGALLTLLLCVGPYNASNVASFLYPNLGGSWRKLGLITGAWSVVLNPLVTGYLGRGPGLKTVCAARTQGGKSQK

“porcine pancreatic sPLA2: Phospholipase A2 from porcine pancreas, Sigma; primarily Group IB secretory phospholipase A2 (Swiss Prot P00592)” was tested, and the “PLAP activity in GPR40-SE302 cells” value (human GPR40) was “concentration dependent elevation of PLAP activity”, the “PLAP activity in GPR43-SE302 cells” value (human GPR43) was “no elevation of PLAP activity” and the “PLAP activity in GFP-SE302 cells” value (GFP-SE302 cells) was “no elevation of PLAP activity”.

B1: mGX-sPLA2-His: purified mouse C-terminal His-tagged Group X secretory phospholipase A2, expressed in Sf9 cells (protein, UniProt Q9QXX3 29-151, looked up)
Group 10 secretory …: GLLELAGTLDCVGPRSPMAYMNYGCYCGLGGHGEPRDAIDWCCYHHDCCYSRAQDAGCSPKLDRYPWKCMDHHILCGPAENKCQELLCRCDEELAYCLAGTEYHLKYLFFPSILCEKDSPKCN
modifications: C-terminal His6 tag
notes: purified mouse C-terminal His-tagged Group X secretory phospholipase A2, expressed in Sf9 cells
For B1, the “PLAP activity in GPR40-SE302 cells” value (human GPR40) was “concentration dependent elevations of PLAP activity” and the “PLAP activity in GFP-SE302 cells” value (GFP-SE302 cells) was “no specific elevation of PLAP activity”.

B2: C-terminal FLAG tagged mGX-sPLA2: C-terminal FLAG-tagged mouse GX-sPLA2 (SEQ ID NO: 43), purified from Sf-9 culture supernatant (protein, listed as Mus musculus)
chain: MLLLLLLLLLGPGPGFSEATRRSHVYKRGLLELAGTLDCVGPRSPMAYMNYGCYCGLGGHGEPRDAIDWCCYHHDCCYSRAQDAGCSPKLDRYPWKCMDHHILCGPAENKCQELLCRCDEELAYCLAGTEYHLKYLFFPSILCEKDSPKCNDYKDDDDK
modifications: C-terminal FLAG tag
B2 was tested, and the “PLAP activity in GPR40-SE302 cells” value (human GPR40) was “concentration-dependent elevation of PLAP activity”, the “PLAP activity in GPR43-SE302 cells” value (human GPR43) was “no elevation of PLAP activity” and the “PLAP activity in GFP-SE302 cells” value (GFP-SE302 cells) was “no elevation of PLAP activity”.

B3: hGX-sPLA2-His: purified human C-terminal His-tagged Group X secretory phospholipase A2, expressed in Sf9 cells (protein, UniProt O15496 43-165, looked up)
Group 10 secretory …: GILELAGTVGCVGPRTPIAYMKYGCFCGLGGHGQPRDAIDWCCHGHDCCYTRAEEAGCSPKTERYSWQCVNQSVLCGPAENKCQELLCKCDQEIANCLAQTEYNLKYLFYPQFLCEPDSPKCD
modifications: C-terminal His6 tag
notes: purified human C-terminal His-tagged Group X secretory phospholipase A2, expressed in Sf9 cells
In the case of B3, the “PLAP activity in GPR40-SE302 cells” value (human GPR40) is reported as “concentration dependent elevations of PLAP activity” and the “PLAP activity in GFP-SE302 cells” value (GFP-SE302 cells) is reported as “no specific elevation of PLAP activity”.

B4: C-terminal FLAG tagged hGX-sPLA2: C-terminal FLAG-tagged human GX-sPLA2 (SEQ ID NO: 41), purified from silkworm pupa extract (protein, listed as Homo sapiens)
chain: MGPLPVCLPIMLLLLLPSLLLLLLLPGPGSGEASRILRVHRRGILELAGTVGCVGPRTPIAYMKYGCFCGLGGHGQPRDAIDWCCHGHDCCYTRAEEAGCSPKTERYSWQCVNQSVLCGPAENKCQELLCKCDQEIANCLAQTEYNLKYLFYPQFLCEPDSPKCDDYKDDDDK
modifications: C-terminal FLAG tag
B4 was tested, and the “PLAP activity in GPR40-SE302 cells” value (human GPR40) was “concentration-dependent elevation of PLAP activity”, the “PLAP activity in GPR43-SE302 cells” value (human GPR43) was “no elevation of PLAP activity” and the “PLAP activity in GFP-SE302 cells” value (GFP-SE302 cells) was “no elevation of PLAP activity”.
